Experimental findings from patent publication US20240343810A1 (published 2024) are described below.

Experiment [1] concerns the target T1, human ICOS-mFc (Chimerigen) (human, UniProt Q9Y6W8 21-140).
T1 construct: Bought; also called recombinant human ICOS protein; hICOS; not shown: mouse Fc of the bought fusion
T1 sequence: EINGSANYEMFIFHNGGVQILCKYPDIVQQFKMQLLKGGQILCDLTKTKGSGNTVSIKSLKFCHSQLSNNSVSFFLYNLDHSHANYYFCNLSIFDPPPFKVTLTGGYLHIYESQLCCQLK
The experiment can be described thus: HTRF, human ICOS-mFc, competitor human B7-H2-Alexa 647, n1. Here is the method:
(§1) 5 μl of human ICOS-mFc (Chimerigen) at 20 nM (5 nM final) or 5 ul of mouse ICOS-mFc (Chimerigen) at 4 nM (1 nM final) were added to relevant assay wells. Plate was incubated for 1 hour (hr) at room temperature (RT).
(§2) After incubation, assay was read on Envision plate reader (Perkin Elmer) using a standard HTRF protocol. 620 nm and 665 nm channel values were exported to Microsoft Excel and % Delta-F and % Neutralisation calculations performed. Titration curves and IC50 values [M] were plotted using Graphpad (Prism). IC50 values were calculated by first transforming the data using equation X=Log(X). The transformed data was then fitted using nonlinear regression, using fitting algorithm, log (inhibitor) vs. response—variable slope (four parameters).
Background: In TR-FRET formats the signal depends on donor and acceptor labels being close together.

Experiment [2] has as its target T2, human ICOS expressed on cells (human, UniProt Q9Y6W8 21-199).
T2 sequence: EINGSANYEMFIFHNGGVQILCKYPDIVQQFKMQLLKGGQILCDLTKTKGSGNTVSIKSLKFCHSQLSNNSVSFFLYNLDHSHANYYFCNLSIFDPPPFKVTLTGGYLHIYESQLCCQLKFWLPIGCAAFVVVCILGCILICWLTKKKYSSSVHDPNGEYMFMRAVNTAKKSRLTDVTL
Briefly: cell-based or functional assay.

For experiment [3], the target named is T3, mouse ICOS expressed on CHO cells (mouse, UniProt Q9WVS0 21-200).
T3 construct: also called CHO-S cells transfected with mouse ICOS; mICOS
T3 sequence (looked up): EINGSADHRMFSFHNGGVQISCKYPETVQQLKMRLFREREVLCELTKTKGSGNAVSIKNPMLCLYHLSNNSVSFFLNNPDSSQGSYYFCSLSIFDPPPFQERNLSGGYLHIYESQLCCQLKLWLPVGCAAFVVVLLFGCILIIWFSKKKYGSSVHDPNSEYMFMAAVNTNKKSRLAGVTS
Briefly: Flow cytometry on CHO-S mouse ICOS cells, anti-human IgG AF647, N=1. Here is the method: (§3) CHO—S cells transfected with either human ICOS or mouse ICOS were resuspended in FACS buffer (PBS+1% w/v BSA+0.1% w/v sodium azide) and transferred to a 96-well V-bottom plate (Greiner) at a density of 1×10⁵ cells per well. mAb and mAb² were titrated in FACS buffer, 1 in 3 dilution across 11 points from a starting working concentration of 400 nM. Plates were centrifuged at 300×g for 3 minutes, supernatant discarded and 50 μL mAb or mAb² solution were added to cells and incubated at 4° C. for 1 hour. Cells were washed with 150 μL of PBS and centrifuged at 300×g for 3 minutes, supernatant was discarded and cell pellet resuspended in 150 μL PBS added. This wash step was repeated twice. Bound mAb or mAb² was detected by addition of 50 μL of anti-human 647 (Jackson ImmunoResearch) diluted to 3 ug/ml in FACS buffer. Cells were incubated for 1 hour at 4° C. in the dark. Cells were washed with 150 μL of PBS and centrifuged at 300 g for 3 minutes, supernatant was discarded and cell pellet resuspended in 150 μL PBS added. This wash step was repeated twice. Cells were fixed with 25 μL 4% v/v paraformaldehyde, incubated for 20 minutes at 4° C., cells were pelleted by centrifugation at 300×g and the supernatant discarded. […] AlexaFluor 647 signal intensity (geometric mean) was measured by flow cytometry using a Beckman Coulter CytoFLEX instrument.
Background: In flow cytometry, cells or beads pass a laser one at a time.

In experiment [4] the target is T2, human ICOS expressed on cells. Briefly: Flow cytometry on CHO-S human ICOS cells, anti-human IgG AF647, N=1. On the procedure: as §3
Experiment [5] addresses T1, human ICOS-mFc (Chimerigen). Briefly: HTRF, human ICOS-mFc, competitor human B7-H2-Alexa 647, average. On the procedure:
as §1, §2

The target in experiment [6] is T4, mouse ICOS-mFc (Chimerigen) (mouse, UniProt Q9WVS0 21-141, limits assumed).
T4 construct: Bought; also called recombinant mouse ICOS protein; mICOS; not shown: mouse Fc of the bought fusion
T4 sequence: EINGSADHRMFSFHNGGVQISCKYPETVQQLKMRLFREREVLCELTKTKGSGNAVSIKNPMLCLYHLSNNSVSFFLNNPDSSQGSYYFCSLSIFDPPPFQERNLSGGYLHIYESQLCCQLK
The experiment can be described thus: DELFIA ELISA on coated mouse ICOS-mFc, mean. On the procedure:
Recombinant ICOS proteins, human ICOS-mFc or mouse ICOS-mFc (Chimerigen) were diluted in 1×PBS and added to Black Hi-bind plates (Griener) at 1 μg/ml, 50 μl/well. Recombinant PD-L1 proteins, human PD-L1-Flag-His or mouse-His were diluted in 1×PBS and added to Black Hi-bind plates (Griener) at 4 μg/ml, 50 μl/well. The plates were left overnight at 4° C. The next day plates were washed 3× with 300 μl/well of 1×PBS+0.1% Tween and blocked with 200 ul/well of 1×PBS+1% BSA blocking buffer for 1 hr at RT on a plate shaker. Plates were washed 3× with 300 μl/well of 1×PBS+0.1% Tween.
However, human-PD-L1 mAb² antibodies were diluted in 1×PBS+0.1% BSA buffer and diluted 1 in 2 from a starting working concentration of 0.066 μM over an 11 point titration. Titrated antibodies were added to the plates, 50 μl/well and left to incubate for 1 hr at R.T on a plate shaker. Plates were washed 3× with 300 μl/well of 1×PBS+0.1% Tween.
DELFIA® Eu-labelled Anti-human IgG (Perkin-Elmer) was diluted 1:500 in DELFIA Assay buffer (Perkin-Elmer) and added to the assay plate (50 μl/well), left to incubate for 1 hr at RT on a plate shaker. […] After incubation, assay was read on Envision plate reader (Perkin Elmer), Time-resolved fluorescence (TRF) was measured at 615 nm.
Background: In an ELISA, binding on a coated surface is turned into a signal by an enzyme label.

B1: STIM003 (antibody, human IgG1, kappa)
heavy: not shown
light: EIVLTQSPGTLSLSPGERATLSCRASQSVSRSYLAWYQQKRGQAPRLLIYGASSRATGIPDRFSGDGSGTDFTLSISRLEPEDFAVYYCHQYDMSPFTFGPGTKVDIKRTVAAPSVFIFPPSDEQLKSGTASVVCLLNNFYPREAKVQWKVDNALQSGNSQESVTEQDSKDSTYSLSSTLTLSKADYEKHKVYACEVTHQGLSSPVTKSFNRGEC
notes: Anti-ICOS monospecific antibody, tested as human IgG1; also called STIM003 monoclonal IgG1 antibody
In the case of B1, the IC50 in experiment [1] was 0.43 nM. Also, in experiment [2], the “EC50 of IFN-γ production, plate-bound antibody, human T-cells + CD3/CD28 beads, donor 276” value is 7.1 nM; the “EC50 of IFN-γ production, plate-bound antibody, human T-cells + CD3/CD28 beads, donor 278” value was 3.8 nM; the “EC50 of IFN-γ production, plate-bound antibody, human T-cells + CD3/CD28 beads, donor 289” value is about 4 nM; the “EC50 of IFN-γ production, plate-bound antibody, human T-cells + CD3/CD28 beads, donor 295” value is about 11.6 nM. The “EC50 of IFN-γ production, plate-bound antibody, human T-cells + CD3/CD28 beads, median” value in experiment [2] was 5.55 nM. In experiment [3], this molecule displayed an EC50 of 6.8 nM. Also, in experiment [4], the EC50 was 7.22 nM. This molecule also had an IC50 in experiment [5] of 0.53 nM. In experiment [6], this molecule had an EC50 of 0.38 nM.

B2: STIM001 (antibody, human IgG1, kappa)
heavy: not shown
light: DIVMTQSPLSLPVTPGEPASISCRSSQSLLHSNEYNYLDWYLQKPGQSPQLLIFLGSNRASGVPDRFSGSGSGTDFTLKITRVEAEDVGIYYCMQSLQTPLTFGGGTKVEIKRTVAAPSVFIFPPSDEQLKSGTASVVCLLNNFYPREAKVQWKVDNALQSGNSQESVTEQDSKDSTYSLSSTLTLSKADYEKHKVYACEVTHQGLSSPVTKSFNRGEC
notes: Anti-ICOS monospecific antibody, tested as human IgG1; also called STIM001 monoclonal IgG1 antibody
In experiment [1], B2 gave an IC50 of 0.96 nM. Besides, in experiment [2], the “EC50 of IFN-γ production, plate-bound antibody, human T-cells + CD3/CD28 beads, donor 276” value was about 9.9 nM; the “EC50 of IFN-γ production, plate-bound antibody, human T-cells + CD3/CD28 beads, donor 278” value is about 10.2 nM; the “EC50 of IFN-γ production, plate-bound antibody, human T-cells + CD3/CD28 beads, donor 289” value is about 11.2 nM; the “EC50 of IFN-γ production, plate-bound antibody, human T-cells + CD3/CD28 beads, donor 295” value is 14.5 nM. For the same molecule, in experiment [2], the “EC50 of IFN-γ production, plate-bound antibody, human T-cells + CD3/CD28 beads, median” value was 10.7 nM. This molecule also displayed an EC50 in experiment [3] of 25.7 nM. In experiment [4], this molecule returned an EC50 of 30.1 nM. In experiment [5], the IC50 came to 1.47 nM. The same molecule registered an EC50 in experiment [6] of 11.4 nM.

A word on the IC50: it is the concentration that gives 50% inhibition. By EC50 is commonly meant the concentration needed to bring the measured effect to its halfway point. Low values mean higher potency in that assay, high ones lower potency in that assay.
